Laboratory results reported in paper PMC4080450, “The pseudo GTPase CENP-M drives human kinetochore assembly” (eLife, 2014).

Molecular target: T1, CENP-H/His-CENP-K complex (human, UniProt Q9H3R5 1-247; Q9BS16 1-269)
T1 construct: human CENP-H, without any tag; human CENP-K; also called CENP-H/K complex; source: Tnao38 insect cells, co-expressed, purified; not shown: His6, N-terminal, kept
Experiment: SEC; analytical SEC co-elution (Superdex200 5/150 or Superose6 5/150), 4°C; proteins mixed in 50 µl, at least 2 hr on ice; SEC buffer with 150 mM NaCl
Conditions: both partners purified

T1 sequence (Q9H3R5 whole entry, chain 1 of 2): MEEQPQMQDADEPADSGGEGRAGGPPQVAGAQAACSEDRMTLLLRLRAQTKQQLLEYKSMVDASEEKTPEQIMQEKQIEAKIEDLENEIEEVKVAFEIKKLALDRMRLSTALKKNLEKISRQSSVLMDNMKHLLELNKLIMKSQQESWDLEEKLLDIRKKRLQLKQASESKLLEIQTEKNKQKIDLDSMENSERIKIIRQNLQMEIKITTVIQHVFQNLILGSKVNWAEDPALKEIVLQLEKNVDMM
T1 sequence (Q9BS16 whole entry, chain 2 of 2): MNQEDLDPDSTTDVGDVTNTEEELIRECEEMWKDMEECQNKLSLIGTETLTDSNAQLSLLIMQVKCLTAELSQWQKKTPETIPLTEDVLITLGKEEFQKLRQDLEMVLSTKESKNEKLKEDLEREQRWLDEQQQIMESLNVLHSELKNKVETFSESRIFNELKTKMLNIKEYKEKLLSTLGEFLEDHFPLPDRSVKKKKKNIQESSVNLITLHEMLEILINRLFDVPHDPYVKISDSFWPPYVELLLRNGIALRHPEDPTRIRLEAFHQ

B1: His-CENP-I^57–281 (domain or fragment, human, UniProt Q92674 57-281, looked up)
chain: ADDQAEEDALQMAVGYFEKGPIKASQNKDKTLEKHLKTVENVAWKNGLASEEIDILLNIALSGKFGNAVNTRILKCMIPATVISEDSVVKAVSWLCVGKCSGSTKVLFYRWLVAMFDFIDRKEQINLLYGFFFASLQDDALCPYVCHLLYLLTKKENVKPFRVRKLLDLQAKMGMQPHLQALLSLYKFFAPALISVSLPVRKKIYFKNSENLWKTALLAVKQRNR
notes: CENP-I residues 57-281; no methods paragraph tells how this fragment was made; also called N-terminal region of CENP-I; I^N; source: recombinant, expressed in a soluble form
- binding result: binds
